Where two headings read alike, the source gives them in different places.
Experiments:
human VEGFA165 [1] = target: T1, human VEGFA165 (human, UniProt P15692-4 27-191); assay: ELISA, coated human VEGFA165, anti-His detection
T1 construct: Bought protein from two suppliers, treated as one molecule; the supplier is named under assay; also called antigen VEGFA
Protocol: (§1) Antigen human VEGFA165 (label-free, purchased from Sino Biological, Cat. No.: HPLC-10008-HNAH, hereinafter referred to as VEGFA) was diluted with ELISA coating buffer to a final concentration of 0.3 μg/mL and added to a microplate at 100 μL/well for coating at 4° C. overnight. […] The solution used for antibody dilution was PBS containing 0.1% Tween-20 (pH 7.4), i.e., PBST. After being incubated at 37° C. for 1 h, the microplate was washed 3 times with PBST, and a dilution of His-Tag murine monoclonal antibody (purchased from Proteintech, Cat. No.: 66005-1-Ig) was added. The plate was further incubated at 37° C. for 1 h and washed again. Subsequently, a dilution of HRP-labeled goat anti-mouse IgG antibody (HRP-conjugated Affinipure Goat Anti-Mouse IgG (H+L), purchased from Proteintech, Cat. No.: SA00001-1) was added, and the plate was incubated at room temperature for 45 min. After the plate was washed, 100 μL of TMB (purchased from Tiangen Biotech, Cat. No.: PA107-01) was added to each well for color development at 37° C. for 15 min, followed by the addition of 50 μL of stopping solution. The absorbance at 450 nm (OD450) was measured using a microplate reader.
The purified bivalent humanized nanobodies were evaluated for their VEGFA binding activity, and the experimental procedure was the same as that described in “2.

human VEGFA165 [2] = target: T1, human VEGFA165; assay: ELISA, coated human VEGFA165, anti-His detection; remark: listed apart in the source
Protocol: as §1

human VEGFA165 [3] = target: T1, human VEGFA165; assay: competitive ELISA, coated VEGFA, competitor VEGFR2-ECD-Fc 1 nM
human VEGFA165 [4] = target: T1, human VEGFA165; assay: SPR Biacore 8K, VEGFA165 on CM5, nanobody analyte, 1:1 fit
Protocol: Using the Biacore 8K instrument (Cytiva), the antigen VEGFA165 (label-free, purchased from Sino Biological, Cat. No.: HPLC-10008-HNAH) as the ligand was coupled onto a CM5 chip through amino-coupling reagents (EDC and NHS), with the coupling level being about 400 RU. The mobile phase buffer was HBS-EP (0.01 M HEPES pH 7.4, 0.15 M NaCl, 3 mM EDTA, 0.005% v/v Tween 20) during the experiment. […] In the kinetic analysis, the binding time between the antigen and the antibody was 240 s, the dissociation time was 1500 s, and the flow rate was 30 μL/min. In a multi-cycle mode, the chip was regenerated with 100 mM hydrochloric acid.

human VEGFA165 [5] = target: T1, human VEGFA165; assay: competitive ELISA, coated VEGFA, competitor VEGFR2-ECD-Fc 1 nM; remark: listed apart in the source
human VEGFA165 [6] = target: T1, human VEGFA165; assay: ELISA, coated human VEGFA165, anti-His detection; remark: listed apart in the source
Protocol: as §1

T1 sequence (P15692 other isoform, or with tags, fused parts or gaps limits assumed): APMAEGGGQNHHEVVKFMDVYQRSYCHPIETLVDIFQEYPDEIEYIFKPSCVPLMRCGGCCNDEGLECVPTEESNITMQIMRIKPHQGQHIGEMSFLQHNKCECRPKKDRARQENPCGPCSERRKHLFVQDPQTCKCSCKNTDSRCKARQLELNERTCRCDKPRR

| Binder | EC50 (human VEGFA165 [1]) | other results |
| --- | --- | --- |
| 2V30-2H-2m-NL (VHH, Tandem bivalent humanized nanobody) EVQLVESGGGLVQPGGSLRLSCAASGRTFSSYTMGWFRQAPGKEREFVVAISKGGYKYDAVSLEARFTISRDNSKNTVYLQMNSLRPEDTAVYYCAATRAYGSSRLRLAKTYEYWGQGTLVTVSSEVQLVESGGGLVQPGGSLRLSCAASGRTFSSYTMGWFRQAPGKEREFVVAISKGGYKYDAVSLEARFTISRDNSKNTVYLQMNSLRPEDTAVYYCAATRAYGSSRLRLAKTYEYWGQGTLVTVSS | 0.81 nM | – |
| 2V15-4m-NL (VHH, Tandem bivalent humanized nanobody) EVQLVESGGGLVQPGGSLRLSCAASGRTFASYTMGWFRQAPGKEREFVVAISKGGYKYDSVSLEARFTISRDNAKNTVYLQMNSLRPEDTAVYYCAGTRAYGSSRLRLAETYEYWGQGTLVTVSSEVQLVESGGGLVQPGGSLRLSCAASGRTFASYTMGWFRQAPGKEREFVVAISKGGYKYDSVSLEARFTISRDNAKNTVYLQMNSLRPEDTAVYYCAGTRAYGSSRLRLAETYEYWGQGTLVTVSS | 0.19 nM | – |
| 2V1-DP-NL (VHH, Tandem bivalent humanized nanobody) EVQLVESGGGLVQPGGSLRLSCAVSGRTFSSYTMGWFRQAPGKEREFVVAISKGGYKYDSVSLEARFTISRDNSKNTVYLQMNSLRPEDTAVYYCAATRAYGSSRLRLADTYEYWGQGTLVTVSSEVQLVESGGGLVQPGGSLRLSCAVSGRTFSSYTMGWFRQAPGKEREFVVAISKGGYKYDSVSLEARFTISRDNSKNTVYLQMNSLRPEDTAVYYCAATRAYGSSRLRLADTYEYWGQGTLVTVSS | 0.2 nM | – |
| 2V40-3H-2m-NL (VHH, Tandem bivalent humanized nanobody) EVQLVESGGGLVQPGGSLRLSCAASGRTFSSYTMGWFRQAPGKEREFVVAISKGGYKYNAVSLEARFTISRDNSKNTVYLQMNSLRPEDTAVYYCAATRAYGSSRLRLAKTYEYWGQGTLVTVSSEVQLVESGGGLVQPGGSLRLSCAASGRTFSSYTMGWFRQAPGKEREFVVAISKGGYKYNAVSLEARFTISRDNSKNTVYLQMNSLRPEDTAVYYCAATRAYGSSRLRLAKTYEYWGQGTLVTVSS | 0.26 nM | – |
| 2V1-DP-3GS (VHH, Tandem bivalent humanized nanobody) EVQLVESGGGLVQPGGSLRLSCAVSGRTFSSYTMGWFRQAPGKEREFVVAISKGGYKYDSVSLEARFTISRDNSKNTVYLQMNSLRPEDTAVYYCAATRAYGSSRLRLADTYEYWGQGTLVTVSSGGSEVQLVESGGGLVQPGGSLRLSCAVSGRTFSSYTMGWFRQAPGKEREFVVAISKGGYKYDSVSLEARFTISRDNSKNTVYLQMNSLRPEDTAVYYCAATRAYGSSRLRLADTYEYWGQGTLVTVSS | 0.27 nM | – |
| 2V43-1H-2m-3GS (VHH, Tandem bivalent humanized nanobody) EVQLVESGGGLVQPGGSLRLSCAASGRTFSSYTMGWFRQAPGKEREFVVAISKGGYKYDSVSLEARFTISRDNSKNTVYLQMNSLRPEDTAVYYCAATRAYGSSRLRLANTYEYWGQGTLVTVSSGGSEVQLVESGGGLVQPGGSLRLSCAASGRTFSSYTMGWFRQAPGKEREFVVAISKGGYKYDSVSLEARFTISRDNSKNTVYLQMNSLRPEDTAVYYCAATRAYGSSRLRLANTYEYWGQGTLVTVSS | 1.19 nM | – |
| 2V15-39GS (VHH, Tandem bivalent nanobody) QLQLVESGGGSVQPGGSLRLSCEVSGRTFASYTMGWFRQAPGKEREFVVAISKGGYKYDSVSLEARFTISKDNTKNTVYLQMNSLKPEDTAVYYCAGTRAYGSSRLRLAETYEYWGQGTQVTVSSGGGGSGGGSGGGGSGGGGSGGGGSGGGGSGGGGSGGGGSQLQLVESGGGSVQPGGSLRLSCEVSGRTFASYTMGWFRQAPGKEREFVVAISKGGYKYDSVSLEARFTISKDNTKNTVYLQMNSLKPEDTAVYYCAGTRAYGSSRLRLAETYEYWGQGTQVTVSS | – | EC50 (human VEGFA165 [2]): 0.38 nM; IC50 (human VEGFA165 [3]): 1.74 nM; Maximum inhibition rate (%) (human VEGFA165 [3]): 94.5% |
| V29 (VHH, Monovalent nanobody; tag not described here) VHH: QLQLVESGGGSVQPGGSLRLSCEVSGRTFSSYTMGWFRQAPGKEREFVVAISKGGYKYDSVSLEARFTISKDNTKNTVYLQMNSLKPEDTAVYYCAGTRAYGSSRLRLANTYEYWGQGTQVTVSS | – | Kd (human VEGFA165 [4]): 0.653 nM; koff (human VEGFA165 [4]): 0.000154 s⁻¹; kon (human VEGFA165 [4]): 236000 M⁻¹ s⁻¹ |
| V33 (VHH, Monovalent nanobody; tag not described here) VHH: QLQLVESGGGSVQPGGSLRLSCEVSGRTFSSYTMGWFRQAPGKEREFVVAISKGGYKYDSVSLEARFTISKDNTKNTVYLQMNSLKPEDTAVYYCAATRAYGSSRLRLAKTYEYWGQGTQVTVSS | – | Kd (human VEGFA165 [4]): 0.719 nM; koff (human VEGFA165 [4]): 0.000233 s⁻¹; kon (human VEGFA165 [4]): 324000 M⁻¹ s⁻¹ |
| V1-V15 (bispecific antibody) QLQLVESGGGSVQPGGSLRLSCEVSGRTFSSYTMGWFRQAPGKEREFVVAISKGGYKYDSVSLEARFTISKDNTKNTVYLQMNSLKPEDTAVYYCAATRAYGSSRLRLADTYEYWGQGTQVTVSSGGGGSGGGSQLQLVESGGGSVQPGGSLRLSCEVSGRTFASYTMGWFRQAPGKEREFVVAISKGGYKYDSVSLEARFTISKDNTKNTVYLQMNSLKPEDTAVYYCAGTRAYGSSRLRLAETYEYWGQGTQVTVSS | – | IC50 (human VEGFA165 [5]): 3.8 nM; Maximum inhibition rate (%) (human VEGFA165 [5]): 87.8%; EC50 (human VEGFA165 [6]): 0.29 nM |
| 2V1-DP-9GS (VHH, Tandem bivalent humanized nanobody) EVQLVESGGGLVQPGGSLRLSCAVSGRTFSSYTMGWFRQAPGKEREFVVAISKGGYKYDSVSLEARFTISRDNSKNTVYLQMNSLRPEDTAVYYCAATRAYGSSRLRLADTYEYWGQGTLVTVSSGGGGSGGGSEVQLVESGGGLVQPGGSLRLSCAVSGRTFSSYTMGWFRQAPGKEREFVVAISKGGYKYDSVSLEARFTISRDNSKNTVYLQMNSLRPEDTAVYYCAATRAYGSSRLRLADTYEYWGQGTLVTVSS | 0.23 nM | – |

Now from value to binder, other results behind:

| EC50 (human VEGFA165 [1]) | Binder | other results |
| --- | --- | --- |
| 0.22 nM | 2V13-4m-NL (VHH, Tandem bivalent humanized nanobody) EVQLVESGGGLVQPGGSLRLSCAASGRTFTSYTMGWFRQAPGKEREFVVAISKGGYKYDAVSLEARFTISRDNAKNTVYLQMNSLRPEDTAVYYCAGTRAYGSSRLRLADTYEYWGQGTLVTVSSEVQLVESGGGLVQPGGSLRLSCAASGRTFTSYTMGWFRQAPGKEREFVVAISKGGYKYDAVSLEARFTISRDNAKNTVYLQMNSLRPEDTAVYYCAGTRAYGSSRLRLADTYEYWGQGTLVTVSS | – |
| 0.28 nM | 2V1-SA1-NL (VHH, Tandem bivalent humanized nanobody) EVQLVESGGGLVQPGGSLRLSCAVSGRTFSSYTMGWFRQAPGKEREFVVAISKGGYKYDSVSLEARFTISRDNAKNTVYLQMNSLRPEDTAVYYCAATRAYGSSRLRLADTYEYWGQGTLVTVSSEVQLVESGGGLVQPGGSLRLSCAVSGRTFSSYTMGWFRQAPGKEREFVVAISKGGYKYDSVSLEARFTISRDNAKNTVYLQMNSLRPEDTAVYYCAATRAYGSSRLRLADTYEYWGQGTLVTVSS | – |
| 0.26 nM | 2V1-SA1-3GS (VHH, Tandem bivalent humanized nanobody) EVQLVESGGGLVQPGGSLRLSCAVSGRTFSSYTMGWFRQAPGKEREFVVAISKGGYKYDSVSLEARFTISRDNAKNTVYLQMNSLRPEDTAVYYCAATRAYGSSRLRLADTYEYWGQGTLVTVSSGGSEVQLVESGGGLVQPGGSLRLSCAVSGRTFSSYTMGWFRQAPGKEREFVVAISKGGYKYDSVSLEARFTISRDNAKNTVYLQMNSLRPEDTAVYYCAATRAYGSSRLRLADTYEYWGQGTLVTVSS | – |
| 0.24 nM | 2V15-4m-3GS (VHH, Tandem bivalent humanized nanobody) EVQLVESGGGLVQPGGSLRLSCAASGRTFASYTMGWFRQAPGKEREFVVAISKGGYKYDSVSLEARFTISRDNAKNTVYLQMNSLRPEDTAVYYCAGTRAYGSSRLRLAETYEYWGQGTLVTVSSGGSEVQLVESGGGLVQPGGSLRLSCAASGRTFASYTMGWFRQAPGKEREFVVAISKGGYKYDSVSLEARFTISRDNAKNTVYLQMNSLRPEDTAVYYCAGTRAYGSSRLRLAETYEYWGQGTLVTVSS | – |
| 0.94 nM | 2V30-2H-2m-3GS (VHH, Tandem bivalent humanized nanobody) EVQLVESGGGLVQPGGSLRLSCAASGRTFSSYTMGWFRQAPGKEREFVVAISKGGYKYDAVSLEARFTISRDNSKNTVYLQMNSLRPEDTAVYYCAATRAYGSSRLRLAKTYEYWGQGTLVTVSSGGSEVQLVESGGGLVQPGGSLRLSCAASGRTFSSYTMGWFRQAPGKEREFVVAISKGGYKYDAVSLEARFTISRDNSKNTVYLQMNSLRPEDTAVYYCAATRAYGSSRLRLAKTYEYWGQGTLVTVSS | – |
